Measured values taken from patent US20260242478A1 (published 2026).

B1: Phage-3543 (peptide)
peptide: VTPQCVPMWMCTGF
notes: Tested as crude clonal phage supernatant
B2: Phage-3546 (peptide)
peptide: DARACVPEWMCYGF
notes: as for B1
B3: Phage-3537 (peptide)
peptide: FEVACIPQWMCDGF
notes: as for B1
B4: Phage-3541 (peptide)
peptide: ENLICKPAWMCVGF
notes: as for B1
B5: Phage-3540 (peptide)
peptide: VKPMCVPEWMCSGL
notes: as for B1
B6: Phage-3536 (peptide)
peptide: LEMACRPMWMCQGL
notes: as for B1
B7: Phage-3545 (peptide)
peptide: VVKACIPEWMCSGF
notes: as for B1
B8: Phage-3544 (peptide)
peptide: FLQACKPPWMCTGF
notes: as for B1
B9: Phage-3535 (peptide)
peptide: LNAMCVPAWMCTGF
notes: as for B1
B10: Phage-3539 (peptide)
peptide: DVRMCVPEWMCSGF
notes: as for B1
B11: Phage-3538 (peptide)
peptide: IARTCVPAWMCSGF
notes: as for B1
B12: Phage-3542 (peptide)
peptide: LYVKCSPEWMCIGF
notes: as for B1
B13: Phage-3533 (peptide)
peptide: VERVCVPQWMCSGF
notes: as for B1
B14: Phage-3534 (peptide)
peptide: ESVYCIPQWMCSGL
notes: as for B1

How the values were obtained:
[1] = biological target: T1, PSMA Fab (SEQ ID NOs: 19, 20); assay: clonal phage ELISA on captured PSMA Fab, wells pre-incubated with PSMA antigen as competitor
T1 construct: also called Anti-PSMA Fab; 006 PSMA Fab
Protocol: (§1) Clonal phage were harvested as crude supernatants and screened via standard ELISAs. […] Prior to the addition of clonal phage. wells were incubated with blocking buffer and PSMA antigen or blocking buffer alone. Without washing or aspirating, clonal phage supernatants were then added to the wells and incubated for a short time. Wells were then washed followed by detection of bound phage using a horse radish conjugated anti-M13 antibody.

[2] = biological target: T1, PSMA Fab (SEQ ID NOs: 19, 20); assay: clonal phage ELISA, biotinylated PSMA Fab on neutravidin plate, anti-M13 HRP detection;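 also: crude clonal phage supernatants added to wells pretreated with blocking buffer either with or without PSMA antigen, bound phage read after washing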
Protocol: as §1

Anti-PSMA Fab [3] = biological target: T2, Anti-PSMA Fab (biotinylated (site not stated)); assay: clonal phage ELISA on captured PSMA Fab, wells pre-incubated with PSMA antigen as competitor, anti-M13 HRP detection;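 also: crude clonal phage supernatants added, with no intervening wash, to wells preincubated with PSMA antigen in blocking buffer, incubated briefly, then washed before detecting bound phage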
T2 construct: also called 006 PSMA Fab

Anti-PSMA Fab [4] = biological target: T2, Anti-PSMA Fab; assay: clonal phage ELISA on biotinylated PSMA Fab captured on neutravidin plate, anti-M13 HRP detection
Protocol: as §1

Binder | Phage binding ELISA signal, Anti-PSMA Fab with PSMA antigen [1] | Phage binding ELISA signal, Anti-PSMA Fab [2] | Phage binding ELISA signal, Anti-PSMA Fab with PSMA antigen (Anti-PSMA Fab [3]) | Phage binding ELISA signal, Anti-PSMA Fab (Anti-PSMA Fab [4])
B1 | 0.105 | 1.65 | – | –
B2 | 0.0805 | 1.65 | – | –
B3 | 0.118 | 1.66 | – | –
B4 | 0.0738 | 1.65 | – | –
MERMCVPSWMCTGF (Clonal phage of the Peptide-180 library) [Phage-3550] | – | – | 0.089 | 1.64
IEKVCVPAWMCMGF (Clonal phage of the Peptide-180 library) [Phage-3551] | – | – | 0.238 | 1.64
B5 | 0.0907 | 1.65 | – | –
B6 | 0.0725 | 1.66 | – | –
TERVCVPDWMCAGF (Clonal phage of the Peptide-180 library) [Phage-3547] | – | – | 0.0944 | 1.65
B7 | 0.125 | 1.65 | – | –
MNIMCRPVWMCTGL (Clonal phage of the Peptide-180 library) [Phage-3549] | – | – | 0.0993 | 1.65
TPPFCIPKWMCQGF (Clonal phage of the Peptide-180 library) [Phage-3548] | – | – | 0.117 | 1.65
B8 | 0.146 | 1.65 | – | –
B9 | 0.0634 | 1.66 | – | –
B10 | 0.0753 | 1.65 | – | –
VDRLCVPNWMCMGL (Clonal phage of the Peptide-180 library) [Phage-3552] | – | – | 0.072 | 1.64
B11 | 0.102 | 1.65 | – | –
B12 | 0.0709 | 1.65 | – | –
B13 | 0.1 | 1.66 | – | –
B14 | 0.0698 | 1.66 | – | –
